Results published in patent US20230218738A1 (Pfizer, published 2023).

B1: MPE8 (antibody, V domains shown)
VH: EVQLVESGGGLVKPGGSLRLSCAASGFTFSSYSMNWVRQAPGKGLEWVSSISASSSYSDYADSAKGRFTISRDNAKTSLFLQMNSLRAEDTAIYFCARARATGYSSITPYFDIWGQGTLVTVSS
VL: QSVVTQTPSVSGAPGQRVTISCTGSSSNIGAGYDVHWYQQLPGTAPKLLIYDNNNRPSGVPDRFSASKSGTSASLAITGLQAEDEADYYCQSYDRNLSGVFGTGTKVTVL
notes: also called MPEG
B2: AM22 (antibody, V domains shown)
VH: QVQLVQSGAEVKKPGATVKVSCKISGHTLIKLSIHWVRQAPGKGLEWMGGYEGEVDEIFYAQKFQHRLTVIADTATDTVYMELGRLTSDDTAVYFCGTLGVTVTEAGLGIDDYWGQGTLVTVSS
VL: EIVLTQSPGTLSLSPGERATLSCRASQIVSRNHLAWYQQKPGQAPRLLIFGASSRATGIPVRFSGSGSGTDFTLTINGLAPEDFAVYYCLSSDSSIFTFGPGTKVDFK

Tests used:
Assay in all cases: BLI (Octet), F on anti-HIS tip, 20 nM mAb
[1] = molecular target: RSV F protein mutant pXCS776 (RSV A2, UniProt P03420 26-109)
[2] = molecular target: RSV F protein mutant pXCS735 (RSV A2, UniProt P03420 26-109)
[3] = molecular target: RSV F protein mutant pXCS839 (RSV A2, UniProt P03420 26-109)
[4] = molecular target: RSV F protein mutant pXCS877 (RSV A2, UniProt P03420 26-109)
DS-Cav1 = DS-Cav1 (UniProt P03420 26-513)
[5] = molecular target: RSV F protein mutant pXCS898 (RSV A2, UniProt P03420 26-109)
[6] = molecular target: RSV F protein mutant pXCS878 (RSV A2, UniProt P03420 26-109)
[7] = molecular target: RSV F protein mutant pXCS876 (RSV A2, UniProt P03420 26-109)
[8] = molecular target: RSV F protein mutant pXCS811 (RSV A2, UniProt P03420 26-109)
[9] = molecular target: RSV F protein mutant pXCS874 (RSV A2, UniProt P03420 26-109)
[10] = molecular target: RSV F protein mutant pXCS897 (RSV A2, UniProt P03420 26-109)
[11] = molecular target: RSV F protein mutant pXCS875 (RSV A2, UniProt P03420 26-109)

| Binder | Response (nm shift) [1] [nm] | Response (nm shift) [2] [nm] | Response (nm shift) [3] [nm] | Response (nm shift) [4] [nm] | Response (nm shift) (DS-Cav1) [nm] | Response (nm shift) [5] [nm] | Response (nm shift) [6] [nm] | Response (nm shift) [7] [nm] | Response (nm shift) [8] [nm] | Response (nm shift) [9] [nm] | Response (nm shift) [10] [nm] | Response (nm shift) [11] [nm] |
| --- | --- | --- | --- | --- | --- | --- | --- | --- | --- | --- | --- | --- |
| B1 | 0.127 | 0.375 | – | – | – | – | – | – | – | – | – | – |
| B2 | – | – | 0.39 | 0.213 | 0.469 | 0.416 | 0.324 | 0.268 | 0.322 | 0.444 | 0.406 | 0.205 |
